# T1: MAGEA3 peptide on HLA-A*01:01 (human)
# T1 peptide: EVDPIGHLY
# B1:  (TCR, V domains shown)
# Valpha: KQEVTQIPAALSVPEGENLVLNCSFTDSAIYNLQWFRQDPGKGLTSLLLIQSSQREQTSGRLNASLDKSSGRSTLYIAASQPGDSATYLCAVDNYGQNFVFGPGTRLSVLP
# Vbeta: RPQVTQNPRYLITVTGKKLTVTCSQNMNHEYMSWYRQDPGLGLRQIYYSMNVEVTDKGDVPEGYKVSRKEKRNFPLILESPSPNQTSLYFCASSTTGSSPLHFGNGTRLTVT
# Target: T1, MAGEA3 peptide on HLA-A*01:01
# Assay: multimer staining
binder,measurement,value
B1,binding result,recognises

# — patent publication US20220213196A1 (published 2022)
